Test results as given in patent US20210292396A1.
Where a chain is given by its changes, count along the chain named.

Legend:
Assay in all cases: cell-based or functional assay
[1] = target: Env of HIV isolate 0439.v5.c1 (clade A) (HIV)
[2] = target: Env of HIV isolate 0921.v2.c14 (clade C) (HIV)
[3] = target: Env of HIV isolate 235-47 (clade AG) (HIV)
[4] = target: Env of HIV isolate 247-23 (clade D) (HIV)
[5] = target: Env of HIV isolate 25925-2.22 (clade C) (HIV)
[6] = target: Env of HIV isolate 271-11 (clade AG) (HIV)
[7] = target: Env of HIV isolate 3016.v5.c45 (clade D) (HIV)
[8] = target: Env of HIV isolate 3301.v1.c24 (clade AC) (HIV)
[9] = target: Env of HIV isolate 3415.v1.c1 (clade A) (HIV)
[10] = target: Env of HIV isolate 398-F1.F6.20 (clade A) (HIV)
[11] = target: Env of HIV isolate 6405.v4.c34 (clade D) (HIV)
[12] = target: Env of HIV isolate BG505.W6M.C2 (clade A) (HIV)
[13] = target: Env of HIV isolate BJOX002000.03.2 (clade BC) (HIV)
[14] = target: Env of HIV isolate BJOX028000.10.3 (clade AE) (HIV)
[15] = target: Env of HIV isolate C1080.c3 (clade AE) (HIV)
[16] = target: Env of HIV isolate CAP244.D3 (clade C) (HIV)
[17] = target: Env of HIV isolate CNE57 (clade B) (HIV)
[18] = target: Env of HIV isolate Ce1176.A3 (clade C) (HIV)
[19] = target: Env of HIV isolate DU123.06 (clade C) (HIV)
[20] = target: Env of HIV isolate JRCSF.JB (clade B) (HIV)
[21] = target: Env of HIV isolate MW965.26 (clade C) (HIV)
[22] = target: Env of HIV isolate NKU3006.ec1 (clade D) (HIV)
[23] = target: Env of HIV isolate PVO.04 (clade B) (HIV)
[24] = target: Env of HIV isolate QH209.14M.A2 (clade A) (HIV)
[25] = target: Env of HIV isolate T253-11 (clade AG) (HIV)
[26] = target: Env of HIV isolate T255-34 (clade AG) (HIV)
[27] = target: Env of HIV isolate TH023.6 (clade AE) (HIV)
[28] = target: Env of HIV isolate TH966.8 (clade AE) (HIV)
[29] = target: Env of HIV isolate TZBD.02 (clade C) (HIV)
[30] = target: Env of HIV isolate X1254.c3 (clade G) (HIV)
[31] = target: Env of HIV isolate ZM176.66 (clade C) (HIV)
[32] = target: Env of HIV isolate ZM214.15 (clade C) (HIV)
[33] = target: Envelope of SVA.MLV
[34] = target: HIV Env of isolate 16055-2.3 (HIV)
[35] = target: HIV Env of isolate 25925-2.22 (HIV)
[36] = target: HIV Env of isolate 3817.v2.c59 (HIV)
[37] = target: HIV Env of isolate 3873.v1.c24 (HIV)
[38] = target: HIV Env of isolate 6631.v3.c10 (HIV)
[39] = target: HIV Env of isolate 6838.v1.c35 (HIV)
[40] = target: HIV Env of isolate CNE19 (HIV)
[41] = target: HIV Env of isolate CNE53 (HIV)
[42] = target: HIV Env of isolate CNE58 (HIV)
[43] = target: HIV Env of isolate DU172.17 (HIV)
[44] = target: HIV Env of isolate P0402.c2.11 (HIV)
[45] = target: HIV Env of isolate P1981.C5.3 (HIV)
[46] = target: HIV Env of isolate X1193.c1 (HIV)
[47] = target: HIV Env of isolate X1632.S2.B10 (HIV)
[48] = target: HIV Env of isolate ZM135.10a (HIV)
[49] = target: HIV Env of isolate ZM214.15 (HIV)
[50] = target: HIV Env of isolate ZM55.28a (HIV)

B1: ePGT121.18 (ePGT121.18.H1 VH and ePGT121.17.L1 VL) (antibody, V domains shown)
VH: QMQLQESGPGLVKPGETLSLTCSVSGASISSSYWSWLRETPGKGLEWIGYTHHSGDTNYAPSLKSRVHLGLHPSKNQVSLSLTSVTAADTAVYYCARTLHGRRIYGVVAFNEYYTYFYWPTWGKGTQVTVSS
VL: SDISVAPGETVRITCGGESIGSRAVQWYQHRPGQAPRLIIYNNQDRPPGIPERFSGSPDIDFGTTATLTISNVEAGDEATYYCHIWDSRRPTNWELGPGTTLTVL
- IC50, pseudovirus neutralization [1]: 5.67 µg/mL
- IC50, pseudovirus neutralization [2]: 0.091 µg/mL
- IC50, pseudovirus neutralization [3]: 0.006 µg/mL
- IC50, pseudovirus neutralization [4]: > 50 µg/mL
- IC50, pseudovirus neutralization [5]: 3 ng/mL
- IC50, pseudovirus neutralization [6]: > 50 µg/mL
- IC50, pseudovirus neutralization [7]: > 50 µg/mL
- IC50, pseudovirus neutralization [8]: 3 ng/mL
- IC50, pseudovirus neutralization [9]: 0.006 µg/mL
- IC50, pseudovirus neutralization [10]: 3 ng/mL
- IC50, pseudovirus neutralization [11]: 1 ng/mL
- IC50, pseudovirus neutralization [12]: 0.014 µg/mL
- IC50, pseudovirus neutralization [13]: 2 ng/mL
- IC50, pseudovirus neutralization [14]: 0.054 µg/mL
- IC50, pseudovirus neutralization [15]: > 50 µg/mL
- IC50, pseudovirus neutralization [16]: 21.2 µg/mL
- IC50, pseudovirus neutralization [17]: 2 ng/mL
- IC50, pseudovirus neutralization [18]: 3 ng/mL
- IC50, pseudovirus neutralization [19]: 2 ng/mL
- IC50, pseudovirus neutralization [20]: 3 ng/mL
- IC50, pseudovirus neutralization [21]: 3 ng/mL
- IC50, pseudovirus neutralization [22]: > 50 µg/mL
- IC50, pseudovirus neutralization [23]: 3 ng/mL
- IC50, pseudovirus neutralization [24]: > 50 µg/mL
- IC50, pseudovirus neutralization [25]: 0.004 µg/mL
- IC50, pseudovirus neutralization [26]: 0.016 µg/mL
- IC50, pseudovirus neutralization [27]: > 50 µg/mL
- IC50, pseudovirus neutralization [28]: > 50 µg/mL
- IC50, pseudovirus neutralization [29]: 2 ng/mL
- IC50, pseudovirus neutralization [30]: 2 ng/mL
- IC50, pseudovirus neutralization [31]: 0.017 µg/mL
- IC50, pseudovirus neutralization [32]: 0.018 µg/mL
- IC80, pseudovirus neutralization (M1) [33]: > 50 µg/mL
- IC80, pseudovirus neutralization (M2) [33]: > 50 µg/mL
- IC80, pseudovirus neutralization (M1) [34]: 0.089 µg/mL
- IC80, pseudovirus neutralization (M2) [34]: 0.059 µg/mL
- IC80, pseudovirus neutralization (M1) [35]: 8 ng/mL
- IC80, pseudovirus neutralization (M2) [35]: 0.01 µg/mL
- IC80, pseudovirus neutralization (M1) [36]: 2.58 µg/mL
- IC80, pseudovirus neutralization (M2) [36]: 6.79 µg/mL
- IC80, pseudovirus neutralization (M1) [37]: 6 ng/mL
- IC80, pseudovirus neutralization (M2) [37]: 0.011 µg/mL
- IC80, pseudovirus neutralization (M1) [38]: 0.04 µg/mL
- IC80, pseudovirus neutralization (M2) [38]: 0.044 µg/mL
- IC80, pseudovirus neutralization (M1) [39]: 2.59 µg/mL
- IC80, pseudovirus neutralization (M2) [39]: 13.4 µg/mL
- IC80, pseudovirus neutralization (M1) [40]: 6 ng/mL
- IC80, pseudovirus neutralization (M2) [40]: 4 ng/mL
- IC80, pseudovirus neutralization (M1) [41]: 6 ng/mL
- IC80, pseudovirus neutralization (M2) [41]: 9 ng/mL
- IC80, pseudovirus neutralization (M1) [42]: 0.039 µg/mL
- IC80, pseudovirus neutralization (M2) [42]: 0.033 µg/mL
- IC80, pseudovirus neutralization (M1) [43]: 5 ng/mL
- IC80, pseudovirus neutralization (M2) [43]: 5 ng/mL
- IC80, pseudovirus neutralization (M1) [44]: 4 ng/mL
- IC80, pseudovirus neutralization (M2) [44]: 5 ng/mL
- IC80, pseudovirus neutralization (M1) [45]: 3 ng/mL
- IC80, pseudovirus neutralization (M2) [45]: 3 ng/mL
- IC80, pseudovirus neutralization (M1) [46]: 4 ng/mL
- IC80, pseudovirus neutralization (M2) [46]: 5 ng/mL
- IC80, pseudovirus neutralization (M1) [47]: > 50 µg/mL
- IC80, pseudovirus neutralization (M2) [47]: > 50 µg/mL
- IC80, pseudovirus neutralization (M1) [48]: 0.14 µg/mL
- IC80, pseudovirus neutralization (M2) [48]: 0.188 µg/mL
- IC80, pseudovirus neutralization (M1) [49]: 0.053 µg/mL
- IC80, pseudovirus neutralization (M2) [49]: 0.067 µg/mL
- IC80, pseudovirus neutralization (M1) [50]: 0.014 µg/mL
- IC80, pseudovirus neutralization (M2) [50]: 0.014 µg/mL

B2: ePGT121.15.H2.L1 (antibody, V domains shown)
VH: B1 VH with Y113W, Y114F, P120E, T121V
VL: B1 VL with T14S, P32A, R37K, S71T, E95V, L96F, P98G
- neutralization (Table 6 value) [36]: 0.00328
- neutralization (Table 6 value) [40]: 0.000602
- neutralization (Table 6 value) [41]: 0.00162
- neutralization (Table 6 value) [42]: 0.00464

B3: ePGT121.18.17 (ePGT121.18.H17 VH and ePGT121.17.L1 VL) (antibody, V domains shown)
VH: B1 VH with H68T, L69I, H72D
VL: B1 VL
- IC50, pseudovirus neutralization [1]: > 50 µg/mL
- IC50, pseudovirus neutralization [2]: 0.189 µg/mL
- IC50, pseudovirus neutralization [3]: 0.022 µg/mL
- IC50, pseudovirus neutralization [4]: > 50 µg/mL
- IC50, pseudovirus neutralization [5]: 11 ng/mL
- IC50, pseudovirus neutralization [6]: > 50 µg/mL
- IC50, pseudovirus neutralization [7]: > 50 µg/mL
- IC50, pseudovirus neutralization [8]: 9 ng/mL
- IC50, pseudovirus neutralization [9]: 0.062 µg/mL
- IC50, pseudovirus neutralization [10]: 5 ng/mL
- IC50, pseudovirus neutralization [11]: 4 ng/mL
- IC50, pseudovirus neutralization [12]: 0.047 µg/mL
- IC50, pseudovirus neutralization [13]: 4 ng/mL
- IC50, pseudovirus neutralization [14]: 0.338 µg/mL
- IC50, pseudovirus neutralization [15]: > 50 µg/mL
- IC50, pseudovirus neutralization [16]: > 50 µg/mL
- IC50, pseudovirus neutralization [17]: 6 ng/mL
- IC50, pseudovirus neutralization [18]: 8 ng/mL
- IC50, pseudovirus neutralization [19]: 4 ng/mL
- IC50, pseudovirus neutralization [20]: 7 ng/mL
- IC50, pseudovirus neutralization [21]: 4 ng/mL
- IC50, pseudovirus neutralization [22]: > 50 µg/mL
- IC50, pseudovirus neutralization [23]: 9 ng/mL
- IC50, pseudovirus neutralization [24]: > 50 µg/mL
- IC50, pseudovirus neutralization [25]: 0.025 µg/mL
- IC50, pseudovirus neutralization [26]: 0.032 µg/mL
- IC50, pseudovirus neutralization [27]: > 50 µg/mL
- IC50, pseudovirus neutralization [28]: > 50 µg/mL
- IC50, pseudovirus neutralization [29]: 3 ng/mL
- IC50, pseudovirus neutralization [30]: 6 ng/mL
- IC50, pseudovirus neutralization [31]: 0.122 µg/mL
- IC50, pseudovirus neutralization [32]: 0.08 µg/mL
- IC80, pseudovirus neutralization [33]: > 50 µg/mL
- IC80, pseudovirus neutralization [34]: 0.207 µg/mL
- IC80, pseudovirus neutralization [35]: 0.021 µg/mL
- IC80, pseudovirus neutralization [36]: 17.9 µg/mL
- IC80, pseudovirus neutralization [37]: 0.02 µg/mL
- IC80, pseudovirus neutralization [38]: 0.269 µg/mL
- IC80, pseudovirus neutralization [39]: 4.34 µg/mL
- IC80, pseudovirus neutralization [40]: 0.014 µg/mL
- IC80, pseudovirus neutralization [41]: 0.019 µg/mL
- IC80, pseudovirus neutralization [42]: 0.195 µg/mL
- IC80, pseudovirus neutralization [43]: 0.018 µg/mL
- IC80, pseudovirus neutralization [44]: 9 ng/mL
- IC80, pseudovirus neutralization [45]: 5 ng/mL
- IC80, pseudovirus neutralization [46]: 0.013 µg/mL
- IC80, pseudovirus neutralization [47]: > 50 µg/mL
- IC80, pseudovirus neutralization [48]: 0.78 µg/mL
- IC80, pseudovirus neutralization [49]: 0.294 µg/mL
- IC80, pseudovirus neutralization [50]: 0.029 µg/mL
